Laboratory results: US20200181605A1 (SHANGHAI INSTITUTES FOR BIOLOGICAL SCIENCES CHINESE ACADEMY …, published 2020)

Molecular target: T1, endogenous Brd4 protein of untargeted androgenetic haploid embryonic stem cells (NC) (mouse, UniProt Q9ESU6 1-1400, limits assumed)
T1 construct: Endogenous, untagged; a mixture of the large and small isoforms in the cell lysate; also called Brd4 large protein (about 250 kDa); Brd4 small protein (110/120 kDa)
Assay: Co-IP with Brd4 antibody-coupled beads, western blot

binding result: binds
B1: CDK9 (enzyme, UniProt Q99J95 1-372, looked up)
chain: MAKQYDSVECPFCDEVTKYEKLAKIGQGTFGEVFKAKHRQTGQKVALKKVLMENEKEGFPITALREIKILQLLKHENVVNLIEICRTKASPYNRCKGSIYLVFDFCEHDLAGLLSNVLVKFTLSEIKRVMQMLLNGLYYIHRNKILHRDMKAANVLITRDGVLKLADFGLARAFSLAKNSQPNRYTNRVVTLWYRPPELLLGERDYGPPIDLWGAGCIMAEMWTRSPIMQGNTEQHQLALISQLCGSITPEVWPNVDKYELFEKLELVKGQKRKVKDRLKAYVRDPYALDLIDKLLVLDPAQRIDSDDALNHDFFWSDPMPSDLKGMLSTHLTSMFEYLAPPRRKGSQITQQSTNQSRNPATTNQTEFERVF
notes: Endogenous protein co-precipitated from mouse ES cell lysate
